# Laboratory results published in patent publication US20170281809A1 (Novo Nordisk, published 2017).
# Residue numbers refer to the chain shown, from its start. In names and notes the source's numbering stands. Several values for one entry are separate records, joined by “and”; a condition that tells them apart may be missing. Equal values may be shown once.
# B1: humZ270VL1/VH1 (antibody, human IgG4, V domains shown)
# VH: QVQLVQSGAEVKKPGASVKVSCKASGYTFTSYWMNWVRQAPGQGLEWMGRIDPYDSETHYAQKLQGRVTMTTDTSTSTAYMELRSLRSDDTAVYYCARGGYDFDVGTLYWFFDVWGQGTTVTVS
# VL: DIQMTQSPSSLSASVGDRVTITCRASENIYSYLAWYQQKPGKAPKLLIYNAKTLAEGVPSRFSGSGSGTDFTLTISSLQPEDFATYYCQHHYGTPRTFGGGTKVEIK
# notes: No back-mutations; also called hZ270VL1/VH1; huZ270 with a humZ270VH1 heavy chain
# B2: chimeric Z270 antibody (antibody, human IgG4, V domains shown)
# VH: QVQLQQPGAELVRPGASVKLSCKASGYTFTSYWMNWVKQRPEQGLQWIGRIDPYDSETHYSQKFKDKAILTVDKSSSTAYMRLSSLTSEDSAVYYCARGGYDFDVGTLYWFFDVWGAGTTVTVS
# VL: DIQMTQSPASLSASVGETVTITCRASENIYSYLAWYQQKQGKSPQFLVYNAKTLAEGVPSRFSGSGSGTQFSLKINSLQPEDFGSYYCQHHYGTPRTFGGGTKLEIK
# B3: wild-type Z270 produced in HEK293 cells (recZ270) (antibody, mouse IgG1, V domains shown)
# VH: B2 VH
# VL: B2 VL
# notes: also called recombinant Z270
# B4: Z270VH alanine mutant R94A (antibody, name in Kabat numbering, V domains shown)
# VH: B2 VH with R98A
# VL: B2 VL
# Columns and labels:
# [1] = target: single-chain NKG2A-CD94-mFc construct (human) (UniProt Q13241); assay: SPR (Biacore T100); sc-NKG2A-CD94-mFc amine-coupled to CM5 chip, antibody 0.157-2.5 nM as analyte
# [2] = target: T1, CD94/NKG2A on cells (Ba/F3-CD94/NKG2A; NKL cells) (human, UniProt Q13241 1-179); assay: flow cytometry on Ba/F3-CD94/NKG2A cells, APC-conjugated secondary antibody specific for human antibodies
# T1 construct: whole, on cells
# Protocol: The specificity and efficacy of humZ270VL1/VH1, and various humZ270VL1/VH1 variants with back-mutations in the variable light (VL) or variable heavy (VH) regions were tested for binding to CD94/NKG2A in flow-cytometry. For this, Ba/F3-CD94/NKG2A cells were incubated with humZ270-L46F (VL), humZ270-148V (VL), humZ270-L46F/148V (VL), humZ270-V5Q (VH), humZ270-M69L (VH), humZ270-T71V (VH), humZ270-T73K (VH), humZ270-T75S (VH), humZ270-V5Q/M69L/T71V/T73K/T75S (VH), humZ270-M69L/T71V/T73K/T75S (VH) or two different batches of humZ270VL1/VH1 without back-mutations (“DK” and “CHN”). For this purpose, Ba/F3-CD94/NKG2A or -C cells were incubated with various concentrations of the humZ270 variants in tissue-culture medium containing 2% FCS, for at least 30 minutes on ice. The cells were then washed, and incubated in similar medium with APC conjugated secondary antibodies specific for human antibodies, again for at least 30 minutes on ice. After two times washing with ice-cold PBS, the binding of secondary antibodies to cells was visualized using a BD Biosciences FACSarray.
# [3] = target: T1, CD94/NKG2A on cells (Ba/F3-CD94/NKG2A; …); assay: flow cytometry on Ba/F3-CD94/NKG2A cells, no HLA-E tetramer pre-incubation, APC-conjugated secondary antibody
# Protocol: To test whether humZ270VL1/VH1 prevents ligand (i.e. HLA-E) binding to CD94/NKG2A, we analyzed whether humZ270 could prevent the binding of HLA-E tetramers to CD94/NKG2A over-expressing Ba/F3 cells (Ba/F3-CD94/NKG2A). For this, Ba/F3-CD94/NKG2A were incubated with 1) various concentrations of humZ270 or 2) first incubated with a saturing concentration of HLA-E tetramers (4.7 μg/ml) and then incubated with various concentrations of humZ270. All incubations were performed in tissue-culture medium containing 2% FCS, on ice. Subsequently, cells were incubated with APC-conjugated secondary antibodies specific for mouse Ab's, and analyzed by flow cytometry using a BD Biosciences FACSarray.
# [4] = target: T1, CD94/NKG2A on cells (Ba/F3-CD94/NKG2A; …); assay: flow cytometry on Ba/F3-CD94/NKG2A cells, APC-conjugated secondary antibody
# Protocol: The strength and specificity of humZ270 binding to CD94/NKG2A was tested in flow-cytometry, by analyzing the binding of in HEK293 cells produced wild-type Z270 (recZ270), chimeric Z270 with human IgG4 (chimZ270) or humanized Z270 (humZ270VL1/VH1) to Ba/F3 cells stably over-expressing either CD94/NKG2A or CD94/NKG2C. For this purpose, Ba/F3-CD94/NKG2A and -C cells were incubated with various concentrations of Z270 variants in tissue-culture medium containing 2% FCS, for at least 30 minutes on ice. Subsequently cells were washed, and the cells incubated in similar medium with APC conjugated secondary Ab's, again for at least 30 minutes on ice. After two times washing with ice-cold PBS, the binding of mAb's to cells was visualized using a BD Biosciences FACSarray.
# [5] = target: single-chain NKG2A-CD94-mFc construct (human) (UniProt Q13241); assay: SPR (Biacore T100); sc-NKG2A-CD94-mFc on CM5 chip, mutant at 0.75 nM or 1.5 nM
# T1 sequence (chain, as listed by the source limits assumed, chain 1 of 2): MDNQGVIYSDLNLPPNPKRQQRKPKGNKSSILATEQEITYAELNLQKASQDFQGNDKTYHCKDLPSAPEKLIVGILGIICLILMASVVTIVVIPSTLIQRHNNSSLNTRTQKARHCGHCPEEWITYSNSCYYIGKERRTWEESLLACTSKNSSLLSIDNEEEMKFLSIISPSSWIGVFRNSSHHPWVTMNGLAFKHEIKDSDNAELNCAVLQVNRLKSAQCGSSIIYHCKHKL
# T1 sequence (Q13241 whole entry, chain 2 of 2): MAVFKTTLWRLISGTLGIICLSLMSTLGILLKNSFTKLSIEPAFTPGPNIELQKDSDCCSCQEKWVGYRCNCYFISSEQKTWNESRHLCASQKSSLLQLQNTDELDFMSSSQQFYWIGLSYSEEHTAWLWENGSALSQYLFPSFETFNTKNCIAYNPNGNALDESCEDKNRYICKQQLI
Binder,Kd [1] [nM],koff [1] [s⁻¹],kon [1] [M⁻¹ s⁻¹],EC50 (read off the curve) [2],EC50 (read off the curve) [3] [µg/mL],EC50 (read off the curve) [4] [ng/mL],relative binding (binding level in RU divided by that of chimZ270) [5] [%]
B1,0.0665,0.000498,7.49e+06,~10 ng/mL and ~8 ng/mL,~0.03,,
B2,0.0498,0.000397,7.97e+06,,,,
B3,,,,,,~1,
B4,,,,,,,20
